Data taken from publication PMC7948927.

How the values were obtained:
Assay in all cases: MST
[1] = molecular target: OGG1 WT (Homo sapiens) (UniProt O15527); conditions: N at position 11 of strand 1 = THF (tetrahydrofuran abasic site analog), opposite C; MST: 100 nM labeled duplex, 0.0185-3.28 uM protein, 10 mM Na phosphate pH 7.5, 7% glycerol; temperature not stated
[2] = molecular target: OGG1 R161W R161W (Homo sapiens) (UniProt O15527); conditions: saturation not reached; N at position 11 of strand 1 = THF (tetrahydrofuran abasic site analog), opposite C; MST: 100 nM labeled duplex, 0.0185-3.28 uM protein, 10 mM Na phosphate pH 7.5, 7% glycerol; temperature not stated
[3] = molecular target: OGG1 I145M I145M (Homo sapiens) (UniProt O15527); conditions: saturation not reached; N at position 11 of strand 1 = THF (tetrahydrofuran abasic site analog), opposite C; MST: 100 nM labeled duplex, 0.0185-3.28 uM protein, 10 mM Na phosphate pH 7.5, 7% glycerol; temperature not stated
[4] = molecular target: OGG1 S292N S292N (Homo sapiens) (UniProt O15527); conditions: saturation not reached; N at position 11 of strand 1 = THF (tetrahydrofuran abasic site analog), opposite C; MST: 100 nM labeled duplex, 0.0185-3.28 uM protein, 10 mM Na phosphate pH 7.5, 7% glycerol; temperature not stated
OGG1 S292N S292N (Homo sapiens), sequence (O15527 whole entry S292N): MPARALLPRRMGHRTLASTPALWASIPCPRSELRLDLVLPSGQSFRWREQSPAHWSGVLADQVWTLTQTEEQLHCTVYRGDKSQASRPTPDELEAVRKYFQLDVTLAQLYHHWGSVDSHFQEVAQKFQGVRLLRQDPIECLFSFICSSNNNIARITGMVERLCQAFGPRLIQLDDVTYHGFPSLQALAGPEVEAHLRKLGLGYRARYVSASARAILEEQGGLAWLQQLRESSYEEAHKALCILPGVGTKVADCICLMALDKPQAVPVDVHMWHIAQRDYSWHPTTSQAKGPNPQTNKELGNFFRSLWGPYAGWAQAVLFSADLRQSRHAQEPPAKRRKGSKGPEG

OGG1 I145M I145M (Homo sapiens), sequence (O15527 whole entry I145M): as the sequence (O15527 whole entry S292N) above, with I145M, N292S counted along it
OGG1 WT (Homo sapiens), sequence (O15527 whole entry): as the sequence (O15527 whole entry S292N) above, with N292S counted along it
OGG1 R161W R161W (Homo sapiens), sequence (O15527 whole entry R161W): as the sequence (O15527 whole entry S292N) above, with R161W, N292S counted along it

For “CTCTCCCTTCNCTCCTTTCCTCT / AGAGGAAAGGAGCGAAGGGAGAG [THF:C duplex]”, the Kd [1] was 140 nM, the Kd [2] was 1060 nM and the Kd [3] was 900 nM. It also gave a Kd [4] of 1390 nM.
